Patent CN110526967A (UNIV NORTHWEST A&F, dated 2019)

Tests used:
金黄色葡萄球菌肠毒素A = biological target: T1, 金黄色葡萄球菌肠毒素A (Staphylococcus aureus, UniProt P0A0L2 25-257); assay: phage ELISA on coated SEA
T1 sequence: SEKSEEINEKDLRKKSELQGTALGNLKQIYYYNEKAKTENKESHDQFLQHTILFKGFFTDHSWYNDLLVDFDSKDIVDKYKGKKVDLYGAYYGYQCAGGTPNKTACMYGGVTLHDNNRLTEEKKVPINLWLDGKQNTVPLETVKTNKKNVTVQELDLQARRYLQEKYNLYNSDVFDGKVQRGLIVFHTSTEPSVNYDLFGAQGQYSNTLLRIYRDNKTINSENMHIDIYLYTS

金黄色葡萄球菌肠毒素B = biological target: T2, 金黄色葡萄球菌肠毒素B (Staphylococcus aureus, UniProt P01552 28-266); assay: direct ELISA, antigen coated, HRP-conjugated nanobody
T2 sequence: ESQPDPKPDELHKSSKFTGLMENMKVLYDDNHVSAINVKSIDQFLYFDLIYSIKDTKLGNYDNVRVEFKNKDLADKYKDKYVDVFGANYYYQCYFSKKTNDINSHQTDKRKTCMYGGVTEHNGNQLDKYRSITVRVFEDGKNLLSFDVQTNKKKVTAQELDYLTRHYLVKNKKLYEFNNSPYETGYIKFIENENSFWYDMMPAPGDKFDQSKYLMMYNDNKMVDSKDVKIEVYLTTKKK

B1: 金黄色葡萄球菌肠毒素A纳米抗体A13 (VHH)
VHH: ESGGGSVQAGGSLRLSCAASGDAYMCKCMGWFRQGPGKEREKVAAIYITDGSTYYADSVKGRFTLSQDNAKNTVYLQMNSLKPEDTAMYYCAASTFYGCETGLHGYNYWGQGTQVTVS
- binding result (金黄色葡萄球菌肠毒素A): binds
- binding result (金黄色葡萄球菌肠毒素B): no binding (tested: 500ng/mL (coating))
